Five molecules from patent US20160032013A1 (Genentech, published 2016) can be followed below.

For experiment [1], the target named is T1, Mouse RON on cells (3T3-mRON cells; mouse colon and skin) (mouse, UniProt Q62190 24-1378).
T1 construct: That is its entry for mouse RON; also called murine RON
T1 sequence: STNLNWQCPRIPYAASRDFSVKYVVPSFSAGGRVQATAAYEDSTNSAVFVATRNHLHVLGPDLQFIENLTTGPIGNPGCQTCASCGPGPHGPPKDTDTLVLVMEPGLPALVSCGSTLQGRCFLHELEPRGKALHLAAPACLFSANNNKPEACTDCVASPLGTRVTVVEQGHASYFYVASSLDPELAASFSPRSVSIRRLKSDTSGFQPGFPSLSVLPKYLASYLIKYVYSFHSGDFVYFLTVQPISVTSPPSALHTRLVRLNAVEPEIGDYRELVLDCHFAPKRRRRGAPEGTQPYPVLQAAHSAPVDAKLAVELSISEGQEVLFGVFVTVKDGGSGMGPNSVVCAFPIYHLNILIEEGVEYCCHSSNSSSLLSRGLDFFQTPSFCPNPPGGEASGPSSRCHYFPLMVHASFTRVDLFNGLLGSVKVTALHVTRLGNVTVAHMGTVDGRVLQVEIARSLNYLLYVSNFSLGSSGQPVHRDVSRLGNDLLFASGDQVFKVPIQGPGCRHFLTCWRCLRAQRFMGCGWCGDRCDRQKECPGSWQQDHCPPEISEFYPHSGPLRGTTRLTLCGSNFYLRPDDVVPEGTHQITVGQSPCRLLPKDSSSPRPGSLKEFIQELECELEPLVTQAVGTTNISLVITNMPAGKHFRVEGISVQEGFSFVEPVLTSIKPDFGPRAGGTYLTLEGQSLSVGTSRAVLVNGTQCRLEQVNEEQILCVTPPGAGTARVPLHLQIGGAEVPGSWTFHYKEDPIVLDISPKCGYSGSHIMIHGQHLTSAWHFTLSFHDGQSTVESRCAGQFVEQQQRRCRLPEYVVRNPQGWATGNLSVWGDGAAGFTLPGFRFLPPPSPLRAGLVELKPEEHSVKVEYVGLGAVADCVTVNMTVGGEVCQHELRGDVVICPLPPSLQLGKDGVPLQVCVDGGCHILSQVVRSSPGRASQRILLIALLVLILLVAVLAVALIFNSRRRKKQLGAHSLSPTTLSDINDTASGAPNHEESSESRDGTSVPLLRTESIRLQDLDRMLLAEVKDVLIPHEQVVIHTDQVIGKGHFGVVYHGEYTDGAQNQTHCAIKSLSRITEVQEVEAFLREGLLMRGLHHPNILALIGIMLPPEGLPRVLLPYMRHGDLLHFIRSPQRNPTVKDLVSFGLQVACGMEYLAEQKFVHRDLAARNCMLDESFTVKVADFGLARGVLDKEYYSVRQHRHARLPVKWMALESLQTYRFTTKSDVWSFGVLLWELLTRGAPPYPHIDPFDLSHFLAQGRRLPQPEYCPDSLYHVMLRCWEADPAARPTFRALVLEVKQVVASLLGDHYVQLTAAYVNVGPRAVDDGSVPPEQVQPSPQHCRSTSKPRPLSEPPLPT
Briefly: flow cytometry on 3T3-mRON cells.

In experiment [2] the target is T2, Mouse RON-hIgG1 Fc (murine RON Sema/PSI/IPT1, natural leader + R33-V684, fused to human IgG1 Fc) (mouse).
T2 construct: also called mRON-hFc; murine RON-Fc
Briefly: SPR (Biacore), anti-Fc chip; legend names murine RON-Fc; the sheet's scheme ('RON or MSP' over 'MSP-Fc or RON-Fc') and have the MSPβ-Fc fusion captured and soluble RON-His injected. As for the experimental part: Binding kinetics of RON to MSP β-Fc fusion proteins and MSP proteins to RON-Fc fusions were determined using a Biacore 3000 optical biosensor equipped with a research-grade CM5 sensor chip (GE Healthcare). Amine coupling reagents, N-ethyl-N′-dimethylamino-propylcarbodiimide (EDC), N-hydroxy-succinimide (NHS) and sodium ethanolamine HCl, pH 8.5, were obtained from GE Healthcare. Standard coupling protocols were used to tether a rabbit anti-human IgG1 or rabbit anti-murine IgG2a (Jackson ImmunoResearch Laboratories) onto the biosensor surface. A biosensor chip that was subjected to the amine coupling procedure with no protein coupled was used to correct for non-specific binding. […] Various concentrations (500-3.9 nM, 2-fold dilution series) of RON-His, were injected in HBS-P buffer (10 mM HEPES, pH 7.5, 150 mM NaCl, 0.005% P20) at 25° C. with a flow rate of 30 μL/min and dissociation monitored for 240 sec. Between measurements, the biosensor surfaces were regenerated with a 120 s pulse of 10 mM glycine-HCl pH 1.5 followed by a 120 s wash with running buffer.
(SPR reads the build-up and loss of mass on a sensor chip optically.)

Experiment [3] concerns the target T1, Mouse RON on cells (3T3-mRON cells; …). As to the kind of experiment: cell-based or functional assay.
Experiment [4] has as its target T3, Human RON-hIgG1 Fc (RON Sema/PSI/IPT1 fused to human IgG1 Fc) (human).
T3 construct: also called RON-Fc; hRON-Fc
As to the kind of experiment: SPR capturing RON-Fc at 25 C. As for the experimental part:
To determine MSP protein binding kinetics to hRON-Fc or mRON-Fc fusion proteins, between 50 and 100 response units (RU) were captured on each of three immobilized anti-human Fc surfaces. Various concentrations (50-0.78 nM, 2-fold dilution series) of MSP, MSP β, MSP α or scMSP were injected in HBS-P buffer (10 mM HEPES, pH 7.5, 150 mM NaCl, 0.005% P20) at 25° C. with a flow rate of 30 μL/min and dissociation monitored for 4 min. Between measurements, the biosensor surfaces were regenerated with a 2 min pulse of 10 mM glycine-HCl pH 1.5.

Experiment [5] deals with T4, Recombinant human RON Sema/PSI (residues E25-P568) with C-terminal His-tag (human, UniProt Q04912 25-568).
T4 construct: Made in Trichoplusia ni insect cells
As to the kind of experiment: SPR using immobilized RON Sema/PSI at 25 C.

The target in experiment [6] is T3, Human RON-hIgG1 Fc (RON Sema/PSI/IPT1 …). Briefly: BLI using RON-Fc at 30 C. As to the method: Real-time kinetic measurements of MSP binding to RON were conducted using an Octet RED384 (ForteBio, Inc). Samples or buffer were dispensed into 96-well microtiter plates (Greiner Bio-One North America, Inc.) at a volume of 200 μl per well. Anti-human IgG Fc Biosensors were used for the experiments. Each experiment consisted of three steps: incubation with ForteBio Kinetic buffer diluted 1:10 in PBS assay buffer to establish an equilibrium for 120 s (baseline), incubation with 10 μg/ml RON-Fc in assay buffer to coat the biosensor with binding target for 900 s (load), incubation with MSP, MSP β or scMSP in assay buffer containing various concentrations (75-4.7 nM, 2-fold dilution series) for 400 s (association), and incubation with assay buffer to measure the off-rate of MSP for 400 s (dissociation). Operating temperature was maintained at 30° C. Data were generated automatically by the Octet Data Acquisition 7.0 software. Each data set was fitted globally to a simple one-to-one binding model using ForteBio Analysis Software 7.0 to determine the kinetic parameters kₐ and kd. The equilibrium dissociation constants (KD) were then calculated as a ratio (koff/kₒₙ) of these rate constants.

By EC50 (read off the curve) is commonly meant the midpoint of the concentration-response curve. A higher EC50 (read off the curve) goes with a need for much substance. In general, Kd refers to the free concentration of one partner at which half of the binding sites on the other are occupied at equilibrium, for simple one-to-one binding. As a reminder, the koff is the rate constant with which the complex falls apart. The term kon denotes the second-order rate constant of association.

T3 sequence (chain, as listed by the source limits assumed): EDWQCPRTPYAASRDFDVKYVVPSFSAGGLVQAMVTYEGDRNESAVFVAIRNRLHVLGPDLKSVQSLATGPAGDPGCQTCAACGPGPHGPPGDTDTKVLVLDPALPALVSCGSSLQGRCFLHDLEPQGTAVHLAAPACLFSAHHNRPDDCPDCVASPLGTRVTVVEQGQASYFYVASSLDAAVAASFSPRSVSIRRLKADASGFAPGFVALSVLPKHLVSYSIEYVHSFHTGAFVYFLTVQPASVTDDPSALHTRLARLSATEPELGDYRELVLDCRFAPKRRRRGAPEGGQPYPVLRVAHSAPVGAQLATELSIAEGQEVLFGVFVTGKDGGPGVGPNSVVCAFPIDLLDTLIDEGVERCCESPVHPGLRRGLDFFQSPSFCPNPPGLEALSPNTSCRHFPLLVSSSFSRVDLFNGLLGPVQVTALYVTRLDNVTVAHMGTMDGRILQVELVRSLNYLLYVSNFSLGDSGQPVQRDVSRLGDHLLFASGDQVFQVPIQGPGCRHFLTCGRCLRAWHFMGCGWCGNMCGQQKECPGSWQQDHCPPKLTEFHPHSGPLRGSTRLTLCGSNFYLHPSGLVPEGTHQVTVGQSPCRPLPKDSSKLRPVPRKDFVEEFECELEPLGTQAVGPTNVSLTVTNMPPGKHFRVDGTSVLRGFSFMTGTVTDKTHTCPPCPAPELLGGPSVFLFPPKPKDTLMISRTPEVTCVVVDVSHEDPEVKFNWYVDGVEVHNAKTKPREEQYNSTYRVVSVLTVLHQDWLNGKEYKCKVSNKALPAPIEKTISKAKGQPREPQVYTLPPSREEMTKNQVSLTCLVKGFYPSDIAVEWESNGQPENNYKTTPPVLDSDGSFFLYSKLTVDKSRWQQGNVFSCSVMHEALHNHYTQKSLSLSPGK

B1: Mouse MSP β-L12-mIgG2a Fc (Fc fusion)
chain: VVGGHPGNSPWTVSLRNRQGQHFCGGSLVKEQWVLTARQCIWSCHEPLTGYEVWLGTINQNPQPGEANLQRVPVAKAVCGPAGSQLVLLKLERPVILNHHVALIALPPEQYVVPPGTKCEIAGWGESIGTSNNTVLHVASMNVISNQECNTKYRGHIQESEICTQGLVVPVGACEGDYGGPLACYTHDAWVLQGLIIPNRVCARPRWPAIFTRVSVFVDWINKVMQLEKKIEPRGPTIKPCPPCKCPAPNLLGGPSVFIFPPKIKDVLMISLSPIVTCVVVDVSEDDPDVQISWFVNNVEVHTAQTQTHREDYNSTLRVVSALPIQHQDWMSGKEFKCKVNNKDLPAPIERTISKPKGSVRAPQVYVLPPPEEEMTKKQVTLTCMVTDFMPEDIYVEWTNNGKTELNYKNTEPVLDSDGSYFMYSKLRVEKKNWVERNSYSCSVVHEGLHNHHTTKSFSRTPGK
notes: also called m12m; mMSPβ-L12-mIgG2a
For the molecule B1, the “EC50 (read off the curve)” value in experiment [1] is approximately 0.05 µg/mL. Also, the dissociation constant Kd in experiment [2] was determined as 10.4 nM. The “fold increase in Akt phosphorylation, MSD, colon of injected mice” value (“fold increase in Akt phosphorylation” for short) in experiment [3] is approximately 2.3 fold.

B2: h.L16.m DANA (Fc fusion)
MSP β-linker-Fc fusion chain: VVGGHPGNSPWTVSLRNRQGQHFCGGSLVKEQWILTARQCFSSCHMPLTGYEVWLGTLFQNPQHGEPSLQRVPVAKMVCGPSGSQLVLLKLERSVTLNQRVALISLPPEWYVVPPGTKCEIAGWGETKGTGNDTVLNVALLNVISNQECNIKHRGRVRESEMCTEGLLAPVGACEGDYGGPLACFTHNSWVLEGIIIPNRVCARSRWPAVFTRVSVFVDWIHKVMRLGQVTDKKIEPRGPTIKPCPPCKCPAPNLLGGPSVFIFPPKIKDVLMISLSPIVTCVVVAVSEDDPDVQISWFVNNVEVHTAQTQTHREDYASTLRVVSALPIQHQDWMSGKEFKCKVNNKDLPAPIERTISKPKGSVRAPQVYVLPPPEEEMTKKQVTLTCMVTDFMPEDIYVEWTNNGKTELNYKNTEPVLDSDGSYFMYSKLRVEKKNWVERNSYSCSVVHEGLHNHHTTKSFSRTPGK
notes: As h16m, with the D265A and N297A (DANA) mutations in the Fc; also called h16m (DANA); Human MSP β-L16-mIgG2a Fc (DANA)
Take B2: the Kd in experiment [2] was determined as 10.9 nM.

B3: Mouse MSP β-L8-mIgG2a Fc (Fc fusion)
chain: VVGGHPGNSPWTVSLRNRQGQHFCGGSLVKEQWVLTARQCIWSCHEPLTGYEVWLGTINQNPQPGEANLQRVPVAKAVCGPAGSQLVLLKLERPVILNHHVALIALPPEQYVVPPGTKCEIAGWGESIGTSNNTVLHVASMNVISNQECNTKYRGHIQESEICTQGLVVPVGACEGDYGGPLACYTHDAWVLQGLIIPNRVCARPRWPAIFTRVSVFVDWINKVMQLEPRGPTIKPCPPCKCPAPNLLGGPSVFIFPPKIKDVLMISLSPIVTCVVVDVSEDDPDVQISWFVNNVEVHTAQTQTHREDYNSTLRVVSALPIQHQDWMSGKEFKCKVNNKDLPAPIERTISKPKGSVRAPQVYVLPPPEEEMTKKQVTLTCMVTDFMPEDIYVEWTNNGKTELNYKNTEPVLDSDGSYFMYSKLRVEKKNWVERNSYSCSVVHEGLHNHHTTKSFSRTPGK
notes: also called m8m
As for B3, the “EC50 (read off the curve)” value in experiment [1] was approximately 0.05 µg/mL. For the same molecule, the Kd in experiment [2] worked out at 8.5 nM. Also, in experiment [3], the “fold increase in Akt phosphorylation” value was approximately 2 fold.

B4: Mouse MSP β-L4-mIgG2a Fc (Fc fusion)
chain: VVGGHPGNSPWTVSLRNRQGQHFCGGSLVKEQWVLTARQCIWSCHEPLTGYEVWLGTINQNPQPGEANLQRVPVAKAVCGPAGSQLVLLKLERPVILNHHVALIALPPEQYVVPPGTKCEIAGWGESIGTSNNTVLHVASMNVISNQECNTKYRGHIQESEICTQGLVVPVGACEGDYGGPLACYTHDAWVLQGLIIPNRVCARPRWPAIFTRVSVFVDWINKVMQLETIKPCPPCKCPAPNLLGGPSVFIFPPKIKDVLMISLSPIVTCVVVDVSEDDPDVQISWFVNNVEVHTAQTQTHREDYNSTLRVVSALPIQHQDWMSGKEFKCKVNNKDLPAPIERTISKPKGSVRAPQVYVLPPPEEEMTKKQVTLTCMVTDFMPEDIYVEWTNNGKTELNYKNTEPVLDSDGSYFMYSKLRVEKKNWVERNSYSCSVVHEGLHNHHTTKSFSRTPGK
notes: also called m4m
As for B4, in experiment [2], the Kd stood at 8.3 nM. Also, the “fold increase in Akt phosphorylation” value in experiment [3] was approximately 2.6 fold.

B5: Human MSP β R689C (HGF leader + V484-G711 + C588S + C672A + R689C + His tag) (ligand)
chain: VVGGHPGNSPWTVSLRNRQGQHFCGGSLVKEQWILTARQCFSSCHMPLTGYEVWLGTLFQNPQHGEPSLQRVPVAKMVCGPSGSQLVLLKLERSVTLNQRVALISLPPEWYVVPPGTKCEIAGWGETKGTGNDTVLNVALLNVISNQECNIKHRGRVRESEMCTEGLLAPVGACEGDYGGPLACFTHNAWVLEGIIIPNRVCARSCWPAVFTRVSVFVDWIHKVMRLGHHHHHH
notes: This is an inference
B5: the Kd was 9 nM in experiment [4], 9.1 nM in experiment [5] and 9.1 nM in experiment [6]. Moreover, the results for the koff in experiment [4], in experiment [5] and in experiment [6] were 0.0479 s⁻¹, 0.0142 s⁻¹ and 0.0093 s⁻¹, respectively. Besides, the kon came out at 5.75e+06 M⁻¹ s⁻¹ in experiment [4], 1.3e+06 M⁻¹ s⁻¹ in experiment [5] and 1.75e+06 M⁻¹ s⁻¹ in experiment [6].
